Values quoted from earlier work in paper PMC10974892.

Key:
[1] = target: intelectin-1 (hIntL-1) (Homo sapiens) (UniProt Q8WWA0)
OmpC (Escherichia coli) = OmpC (Escherichia coli) (UniProt P06996)
PhoE (Escherichia coli) = PhoE (Escherichia coli) (UniProt P02932)
UniProt P02932, sequence (P02932 22-351): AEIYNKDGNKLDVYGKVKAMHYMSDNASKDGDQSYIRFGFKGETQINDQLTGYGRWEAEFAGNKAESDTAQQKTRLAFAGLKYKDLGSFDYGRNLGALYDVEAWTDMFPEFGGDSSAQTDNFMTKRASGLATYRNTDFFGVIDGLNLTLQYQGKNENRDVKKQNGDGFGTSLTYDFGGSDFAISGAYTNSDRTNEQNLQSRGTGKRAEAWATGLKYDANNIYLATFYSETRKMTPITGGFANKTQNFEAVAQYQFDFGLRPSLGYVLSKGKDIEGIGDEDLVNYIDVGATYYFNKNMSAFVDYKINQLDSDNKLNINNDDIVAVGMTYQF

UniProt Q8WWA0, sequence (Q8WWA0 19-298): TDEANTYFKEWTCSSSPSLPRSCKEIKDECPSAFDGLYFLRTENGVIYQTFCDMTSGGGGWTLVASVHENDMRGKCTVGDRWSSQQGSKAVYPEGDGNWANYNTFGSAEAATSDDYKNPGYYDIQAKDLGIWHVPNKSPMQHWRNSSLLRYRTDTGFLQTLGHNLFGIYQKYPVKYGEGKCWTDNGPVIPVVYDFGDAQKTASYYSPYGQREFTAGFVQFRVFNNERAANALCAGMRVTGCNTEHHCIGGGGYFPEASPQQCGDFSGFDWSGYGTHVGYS
UniProt P06996, sequence (P06996 22-367): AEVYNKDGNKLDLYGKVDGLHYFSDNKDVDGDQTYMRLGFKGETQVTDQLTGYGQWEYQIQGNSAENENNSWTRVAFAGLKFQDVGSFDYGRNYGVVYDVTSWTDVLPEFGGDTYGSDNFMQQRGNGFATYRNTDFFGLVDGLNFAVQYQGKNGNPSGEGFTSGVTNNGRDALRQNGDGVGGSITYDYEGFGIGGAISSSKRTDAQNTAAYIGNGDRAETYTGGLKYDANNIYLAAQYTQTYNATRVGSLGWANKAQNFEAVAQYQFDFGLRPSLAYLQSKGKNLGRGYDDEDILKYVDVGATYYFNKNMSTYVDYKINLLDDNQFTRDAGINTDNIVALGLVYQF

lactoferrin (from UniProt P02788)
Kd [1]: 500 nM
Kd (OmpC (Escherichia coli)): 39 nM
Kd (PhoE (Escherichia coli)): 103 nM
